How the values were obtained:
Assay in all cases: SPR; cytokine immobilised on ProteOn GLH sensor chip by amine coupling (9,000-14,000 RU); S100P (wild type or mutant) as analyte, 62 nM-16 µM; 25 °C; 10 mM HEPES, 150 mM NaCl, 1 mM CaCl2, 0.05% TWEEN 20, pH 7.4; heterogeneous ligand model (two ligand populations), one-site model for IL-13; values averaged over analyte concentrations (n = 3-5)
Details in all cases: both partners purified
Interleukin-35 = molecular target: T1, Interleukin-35 (human, UniProt P29459 23-219; Q14213 21-229)
T1 construct: the chain used for the SCOP family assignment; also called IL-35; source: bought: PeproTech (source HEK293)
T1 sequence (looked up) 1: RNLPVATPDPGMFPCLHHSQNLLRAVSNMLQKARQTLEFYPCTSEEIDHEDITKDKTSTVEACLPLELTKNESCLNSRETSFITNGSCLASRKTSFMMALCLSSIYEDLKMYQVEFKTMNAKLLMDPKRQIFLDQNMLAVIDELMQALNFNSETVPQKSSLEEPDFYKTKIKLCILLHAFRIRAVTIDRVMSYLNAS
T1 sequence (looked up) 2: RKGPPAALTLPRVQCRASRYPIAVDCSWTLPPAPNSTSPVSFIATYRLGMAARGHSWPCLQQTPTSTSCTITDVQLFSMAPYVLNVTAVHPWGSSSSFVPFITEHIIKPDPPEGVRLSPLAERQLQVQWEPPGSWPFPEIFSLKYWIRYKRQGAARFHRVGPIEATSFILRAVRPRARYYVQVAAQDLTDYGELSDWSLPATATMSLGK

Interferon ω-1 = molecular target: T2, Interferon ω-1 (human, UniProt P05000 22-195)
T2 construct: Interferon omega-1, human, UniProt P05000; see the manufacturer's catalogue number; also called IFN-ω1; source: bought: PeproTech (source E. coli)
T2 sequence (P05000 22-195): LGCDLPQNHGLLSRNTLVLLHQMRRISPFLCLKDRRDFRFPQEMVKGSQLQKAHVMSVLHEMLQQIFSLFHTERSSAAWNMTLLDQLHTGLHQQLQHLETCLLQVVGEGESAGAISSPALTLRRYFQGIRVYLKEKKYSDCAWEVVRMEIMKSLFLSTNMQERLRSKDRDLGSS

Interleukin-21 = molecular target: T3, Interleukin-21 (human, UniProt Q9HBE4 25-162)
T3 construct: Interleukin-21, human, UniProt Q9HBE4; see the manufacturer's catalogue number; also called IL-21; source: bought: PeproTech (source E. coli)
T3 sequence (Q9HBE4 25-162): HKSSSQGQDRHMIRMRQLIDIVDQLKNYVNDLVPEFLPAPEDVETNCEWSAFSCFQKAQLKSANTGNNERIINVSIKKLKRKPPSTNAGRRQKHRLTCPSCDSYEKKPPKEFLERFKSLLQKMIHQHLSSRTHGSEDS

Interleukin-3 = molecular target: T4, Interleukin-3 (human, UniProt P08700 20-152)
T4 construct: Interleukin-3, human, UniProt P08700; see the manufacturer's catalogue number; also called IL-3; source: bought: SCI-Store (Russia) (source CHO)
T4 sequence (looked up): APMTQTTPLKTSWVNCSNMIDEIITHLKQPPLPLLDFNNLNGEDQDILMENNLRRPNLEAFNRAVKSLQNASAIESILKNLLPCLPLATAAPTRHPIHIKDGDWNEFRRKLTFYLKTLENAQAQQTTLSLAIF

Somatotropin = molecular target: T5, Somatotropin (human, UniProt P01241 27-217)
T5 construct: Somatotropin (growth hormone), human, UniProt P01241; see the manufacturer's catalogue number; also called GH; growth hormone; source: bought: PeproTech (source E. coli)
T5 sequence (P01241 27-217): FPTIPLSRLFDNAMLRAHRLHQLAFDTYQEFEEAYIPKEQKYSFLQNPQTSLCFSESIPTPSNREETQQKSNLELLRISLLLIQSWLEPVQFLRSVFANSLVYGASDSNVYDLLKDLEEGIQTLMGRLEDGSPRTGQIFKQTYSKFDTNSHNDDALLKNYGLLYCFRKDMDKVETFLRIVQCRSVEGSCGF

Interleukin-20 = molecular target: T6, Interleukin-20 (human, UniProt Q9NYY1 25-176)
T6 construct: Interleukin-20, human, UniProt Q9NYY1; see the manufacturer's catalogue number; also called IL-20; source: bought: PeproTech (source E. coli)
T6 sequence (looked up): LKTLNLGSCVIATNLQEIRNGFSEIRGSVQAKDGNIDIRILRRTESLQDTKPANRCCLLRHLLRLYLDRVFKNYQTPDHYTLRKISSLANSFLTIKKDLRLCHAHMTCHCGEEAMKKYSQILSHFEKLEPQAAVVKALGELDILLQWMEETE

B1: Human S100P protein (recombinant, Ca^2+-loaded) (natural protein)
chain: MTELETAMGMIIDVFSRYSGSEGSTQTLTKGELKVLMEKELPGFLQSGKDKDAVDKLLKDLDANGDAQVDFSEFIVFVAAITSACHKYFEKAGLK
notes: S100P protein, human, recombinant; probably the whole 95-residue protein (surmise); also called wild-type S100P; WT S100P; source: E. coli, prepared as previously described [28]
- Kd1 (heterogeneous ligand model, population 1) (Interleukin-35): 96.2 nM
- Kd2 (heterogeneous ligand model, population 2) (Interleukin-35): 255 nM
- kd1 (heterogeneous ligand model, population 1) (Interleukin-35): 0.000531 s⁻¹
- kd2 (heterogeneous ligand model, population 2) (Interleukin-35): 0.012 s⁻¹
- Kd1 (heterogeneous ligand model, population 1) (Interferon ω-1): 174 nM
- Kd2 (heterogeneous ligand model, population 2) (Interferon ω-1): 578 nM
- kd1 (heterogeneous ligand model, population 1) (Interferon ω-1): 0.000571 s⁻¹
- kd2 (heterogeneous ligand model, population 2) (Interferon ω-1): 0.00839 s⁻¹
- Kd1 (heterogeneous ligand model, population 1) (Interleukin-21): 272 nM
- Kd2 (heterogeneous ligand model, population 2) (Interleukin-21): 285 nM
- kd1 (heterogeneous ligand model, population 1) (Interleukin-21): 0.000928 s⁻¹
- kd2 (heterogeneous ligand model, population 2) (Interleukin-21): 0.0126 s⁻¹
- Kd1 (heterogeneous ligand model, population 1) (Interleukin-3): 23.2 nM
- Kd2 (heterogeneous ligand model, population 2) (Interleukin-3): 579 nM
- kd1 (heterogeneous ligand model, population 1) (Interleukin-3): 0.000627 s⁻¹
- kd2 (heterogeneous ligand model, population 2) (Interleukin-3): 0.00529 s⁻¹
- Kd1 (heterogeneous ligand model, population 1) (Somatotropin): 42.9 nM
- Kd2 (heterogeneous ligand model, population 2) (Somatotropin): 266 nM
- kd1 (heterogeneous ligand model, population 1) (Somatotropin): 0.000669 s⁻¹
- kd2 (heterogeneous ligand model, population 2) (Somatotropin): 0.0142 s⁻¹
- Kd1 (heterogeneous ligand model, population 1) (Interleukin-20): 403 nM
- Kd2 (heterogeneous ligand model, population 2) (Interleukin-20): 537 nM
- kd1 (heterogeneous ligand model, population 1) (Interleukin-20): 0.000442 s⁻¹
- kd2 (heterogeneous ligand model, population 2) (Interleukin-20): 0.0246 s⁻¹
